Laboratory results published in patent publication US20220306744A1 (CRESCENDO BIOLOGICS, published 2022).

B1: 1.2a (VHH)
VHH: EVQLVESGGGLVQPGRSLRLSCAASGFTFDDYAMHWVRQAPGKDLEWVSGISWNGGSMGYAASVKGRFTISRDNAKNSLYLQMNSLRAEDTALYYCVKDKGPGLIGSTADYYGLDVWGQGTTVTVSS
B2: 1.4a (VHH)
VHH: EVQLLESGGGLVQPGRSLRLSCAASGFTFADYAMHWVRQAPGKGREWVSGISWNGGSMGYAESVKGRFTISRDNAKNSLYLQMNSLRAEDSALYYCVKDKGPGLTGTTADYYGMDVWGQGTTVTVSS
B3: 1.5a (VHH)
VHH: EVQLVESGGGLVQPGRSLRLSCAASGFTFDDYAMHWVRQAPGKGLEWVSGISWNGGSMGYADSVKDRFTISRDNAKNSLYLQMNRLRAEDTALYYCVKDKGPGLIGSTADYHGLDVWGQGTTVTVSS
B4: 1.9a (VHH)
VHH: EVQLVESGGGCVQPGRSLRISCAASGFTFDDYAMHWVRQAPGKGREWVSGISWNGGSMGYAESVKGRFTISRDNAKNSLYLQMNSLRAEDSALYYCVKDKGPGLIGSTADYYGMDVWGQGTTVTVSS
B5: 1.8a (VHH)
VHH: EVQLVESGGGLVQPGRSLRLSCAASGFTFDDYAMHWVRQAPGKGLEWVSGISWNSGSMGYADSVKDRFTISRDNAKNSLYLQMNSLRAEDTALYYCVKDKGPGLIGSTADYHGLDVWGQGTTVTVSS
B6: 1.12a (VHH)
VHH: QVQLVESGGGLVQPGRSLRLSCAASGFTFDDYAMHWVRQAPGKGREWVSGISWNGGSMGYADSVKDRFTISRDNAKNSLYLQMNSLRAEDTALYYCVKDKGPGLTGSTADYHGMDVWGQGTTVTVSS
B7: 1.11a (VHH)
VHH: EVQLLESGGGFVQPGRSLRISCAASGFTFDDYAMHWVRQAPGKDLEWVSGISWNGGSMGYAESVKGRFTISRDNAKNSLYLKMNSLRVEDTALYYCVKDKGPGLIGSTADYYGLDVWGQGTTVTVSS
B8: 1.14a (VHH)
VHH: EVQLVESGGGLVQPGRSLRLSCAASGFTFDGYAMHWVRQAPGKGREWVSGISWNSGSMGYAESVKGRFTISRDNAKNSLYLQMNSLRAEDSALYYCVKDKGPGLTGSTADYYGMDVWGQGTTVTVSS
B9: 1.18a (VHH)
VHH: QVQLVESGGGLVQPGRSLRLSCAASGFTFDDYAMHWVRQAPGKDLEWVSGISWNGGSMGYAASVKGRFTISRDNAKNSLYLQMNSLRAEDTALYYCVKDKGPGLIGSTADYYGLDVWGQGTTVTVSS
B10: 1.16a (VHH)
VHH: QVQLVESGGGLVQPGRSLRLSCAASGFTFDDYAMHWVRQAPGKGREWVSGISWNGGSMGYAESVKGRFTISRDNAKNSLYLQMNSLRAEDSALYYCVKDKGPGLIGSTADYYGMDVWGQGTTVTVSS
B11: 1.22a (VHH)
VHH: EVQLVESGGGLVQPGRSLRLSCAASGFTFDDYAMHWVRQAPGKDLEWVSGISWNGGSMGYAASVKGRFTISRDNAKNSLYLQMNSLRAEDTALYYCVREKGPGLTGSTADYYGLDAWGQGTMVTVSS
B12: 1.23a (VHH)
VHH: EVQLVESGGGLVQPGRSLRLSCAASGFTFDDYAMHWVRQAPGKDLEWVSGISWNSGSMGYAASVKGRFTISRDNAKNSLYLQMNSLRAEDTALYYCVREKGPGLTGSTADYYGLDVWGQGTMVTVSS
B13: 1.13a (VHH)
VHH: QVQLVESGGGLVQPGRSLRLSCAASGFTFDDYAMHWVRQAPGKDLEWVSGISWNGGSMGYAASVKGRFTISRDNAQNSLYLQMNSLRAEDTALYYCVKDKGPGLIGSTADYYGLDVWGQGTTVTVSS
B14: 1.21a (VHH)
VHH: EVQLVESGGGLVQPGRSLRLSCAASGFTFDDYAMHWVRQAPGKDLEWVSGISWNGGSMGYAASVKGRFTISRDNAKNSLYLQMNSLRAEDTALYYCVREKGPGLTGSTADYYGLDVWGQGTMVTVSS
B15: 1.3a (VHH)
VHH: EVQLLESGGGLVQPGRSLRLSCAASGFTFDDYAMHWVRQAPGKGREWVSGISWNSGSMGYADSVKDRFTISRDNAKNSLYLQMNSLRAEDTALYYCVKDKGPGLIGSTADYHGLDVWGQGTTVTVSS
B16: 1.10a (VHH)
VHH: EVQLVESGGGLVQPGRSLRLSCAASGFTFADYAMHWVRQAPGKGREWVSGISWNGGSMGYAESVKGRFTISRDNAKNSLYLQMNSLRAEDSALYYCVKDKGPGLTGTTADYYGMDVWGQGTTVTVSS
B17: 1.101b (VHH)
VHH: EVQLVESGGGLVKPGGSLRLSCAASGFTFSDFSMTWMRQAPGKGLEWVSYISSGGGVKFYADSVKGRFTISRDNAKNSLYLQMNSLRAEDTAVYYCAREAPLRLGESPHDAFDISGQGTMVTVSS
B18: 1.110b (VHH)
VHH: EVQLVESGGGLVKPGGSLRLSCAASGFTFSDESNTWMRQAPGKGLEWVSYISSGGGVKFYADSVKGRFTISRDNAKNSLYLQMNSLRAEDTAVYYCAREAPLRLGESPHDAFDISGQGTMVTVSS
B19: 1.107b (VHH)
VHH: EVQLVESGGGLVKPGGSLRLSCAASGFTFSDESYTWMRQAPGKGLEWVSYISSGGGVKFYTDSVKGRFTISRDNAKNSLYLQMNSLRAEDTAVYYCAREAPLRLGESPHDAFDISGQGTMVTVSS
B20: 1.108b (VHH)
VHH: EVQLVESGGGLVKPGGSLRLSCAASGFTFSDESATWMRQAPGKGLEWVSYISSGGGVKFYADSVKGRFTISRDNAKNSLYLQMNSLRAEDTAVYYCAREAPLRLGESPHDAFDISGQGTMVTVSS
B21: 1.103b (VHH)
VHH: EVQLVESGGGLVKPGGSLRLSCAASGFTFSDESQTWMRQAPGKGLEWVSYISSGGGVKFYTDSVKGRFTISRDNAKNSLYLQMNSLRAEDTAVYYCAREAPLRLGESPHDAFDISGQGTMVTVSS
B22: 1.115b (VHH)
VHH: EVQLVESGGGLVKPGGSLRLSCAASGFTFSDESGTWMRQAPGKGLEWVSYISSGGGVKFYADSVKGRFTISRDNAKNSLYLQMNSLRAEDTAVYYCAREAPLRLGESPHDAFDISGQGTMVTVSS
B23: 1.105b (VHH)
VHH: EVQLVESGGGLVKPGGSLRLSCAASGFTFSDESLTWMRQAPGKGLEWVSYISSGGGVKFYTDSVKGRFTISRDNAKNSLYLQMNSLRAEDTAVYYCAREAPLRLGESPHDAFDISGQGTMVTVSS
B24: 1.102b (VHH)
VHH: EVQLVESGGGLVKPGGSLRLSCAASGFTFSDESVTWMRQAPGKGLEWVSYISSGGGVKFYTDSVKGRFTISRDNAKNSLYLQMNSLRAEDTAVYYCAREAPLRLGESPHDAFDISGQGTMVTVSS
B25: 1.113b (VHH)
VHH: EVQLVESGGGLVKPGGSLRLSCAASGFTFSDESSTWMRQAPGKGLEWVSYISSGGGVKFYADSVKGRFTISRDNAKNSLYLQMNSLRAEDTAVYYCAREAPLRLGESPHDAFDISGQGTMVTVSS
B26: 1.106b (VHH)
VHH: EVQLVESGGGLVKPGGSLRLSCAASGFTFSDESKTWMRQAPGKGLEWVSYISSGGGVKFYTDSVKGRFTISRDNAKNSLYLQMNSLRAEDTAVYYCAREAPLRLGESPHDAFDISGQGTMVTVSS
B27: 1.104b (VHH)
VHH: EVQLVESGGGLVKPGGSLRLSCAASGFTFSDESFTWMRQAPGKGLEWVSYISSGGGVKFYTDSVKGRFTISRDNAKNSLYLQMNSLRAEDTAVYYCAREAPLRLGESPHDAFDISGQGTMVTVSS
B28: 1.109b (VHH)
VHH: EVQLVESGGGLVKPGGSLRLSCAASGFTFSDESFTWMRQAPGKGLEWVSYISSGGGVKFYADSVKGRFTISRDNAKNSLYLQMNSLRAEDTAVYYCAREAPLRLGESPHDAFDISGQGTMVTVSS
B29: 1.112b (VHH)
VHH: EVQLVESGGGLVKPGGSLRLSCAASGFTFSDESITWMRQAPGKGLEWVSYISSGGGVKFYADSVKGRFTISRDNAKNSLYLQMNSLRAEDTAVYYCAREAPLRLGESPHDAFDISGQGTMVTVSS
B30: 1.114b (VHH)
VHH: EVQLVESGGGLVKPGGSLRLSCAASGFTFSDESHTWMRQAPGKGLEWVSYISSGGGVKFYADSVKGRFTISRDNAKNSLYLQMNSLRAEDTAVYYCAREAPLRLGESPHDAFDISGQGTMVTVSS
B31: 1.111b (VHH)
VHH: EVQLVESGGGLVKPGGSLRLSCAASGFTFSDESWTWMRQAPGKGLEWVSYISSGGGVKFYADSVKGRFTISRDNAKNSLYLQMNSLRAEDTAVYYCAREAPLRLGESPHDAFDISGQGTMVTVSS

biological target: T1, human PD-1 expressed on cells (CHO TREX human PD1 cell line, full-length human PD-1 sequence) (human, UniProt Q15116 21-288); test: worded summary of the screens
T1 construct: Also used for human PD-1 on Jurkat reporter cells, on PathHunter cells and on PHA-stimulated human CD4+ T cells; also called CHO human PD1 cells; CHO human PD-1 cells
T1 sequence (Q15116 21-288): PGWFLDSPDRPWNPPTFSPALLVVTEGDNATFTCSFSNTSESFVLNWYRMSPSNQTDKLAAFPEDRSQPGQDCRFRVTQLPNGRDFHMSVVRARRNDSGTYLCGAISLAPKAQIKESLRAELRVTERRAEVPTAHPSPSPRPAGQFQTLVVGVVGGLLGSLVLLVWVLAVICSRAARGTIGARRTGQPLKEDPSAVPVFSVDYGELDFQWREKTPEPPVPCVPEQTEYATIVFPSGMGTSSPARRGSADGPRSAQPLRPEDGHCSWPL

Binding result, binds:
B1
B2
B3
B4
B5
B6
B7
B8
B9
B10
B11
B12
B13
B14
B15
B16
B17
B18
B19
B20
B21
B22
B23
B24
B25
B26
B27
B28
B29
B30
B31
